Common to all, as to test: ITC
Assay [1] has as its target PSD-95 PDZ3 (aa R306–E398) (human) (UniProt P78352).
Assay [2] concerns the target PSD-95 PDZ3-C (aa R306-S412) (human) (UniProt P78352).
Assay [3] addresses PSD-95 PSG WT (aa R306-L721) (human, UniProt P78352-3 306-721).

For “N-terminal thioredoxin-tagged last 30 residues of SynGAP (SynGAP PBM) (domain or fragment)”, the Kd – broadly, the concentration at which binding is half-saturated – in assay [1] was determined as 27 µM. The same molecule yielded a fold higher affinity than PDZ3 in assay [2] of 15 fold.

B1: SynGAP CC-PBM L-D&K-D mutant (L1202D and K1252D) (domain or fragment, mouse, UniProt J3QQ18 1147-1308, looked up)
chain: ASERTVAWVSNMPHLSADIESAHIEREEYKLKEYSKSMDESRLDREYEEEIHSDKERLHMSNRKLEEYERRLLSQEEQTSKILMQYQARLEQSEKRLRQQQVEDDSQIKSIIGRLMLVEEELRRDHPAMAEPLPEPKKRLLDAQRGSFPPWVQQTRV
On to B1, for which, in assay [3], the binding result was “binds”.

For the origin of these results see PMC5564291 (Cell, 2016).
